From the supplement of paper PMC9112550, “Optimization of the antimicrobial peptide Bac7 by deep mutational scanning” (BMC Biology, 2022) come the findings set out here.

The data set deals with Escherichia coli TOP10. Put plainly: shrunken log2 fold change of peptide-encoding DNA abundance (4.5 h post-induction vs induction); higher = less antimicrobial activity (less host growth inhibition). The conditions noted are these: time post-induction: 4.5 h; library: site-saturation at positions 5, 18, 19, 20.
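Also: peptides expressed intracellularly from a pBAD plasmid library in pooled LB shake-flask culture, induced with 0.3% L-arabinose, DNA abundance read by NGS, three biological replicates, DESeq2 with apeglm shrinkage.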

Regarding RRIRQRPPRLPRPRPRPTSNPRP, the “shrunken log2 fold change” value is -0.64.

For the sequence RRIRCRPPRLPRPRPRPNQSPRP, the “shrunken log2 fold change” value stood at 2.47.

On to RRIRYRPPRLPRPRPRPIWAPRP, for which the “shrunken log2 fold change” value was -0.089.

Consider RRIRIRPPRLPRPRPRPFFVPRP, for which the “shrunken log2 fold change” value was -0.294.

For the sequence RRIRHRPPRLPRPRPRPFFPPRP, the “shrunken log2 fold change” value is -0.285.

Consider RRIRERPPRLPRPRPRPVEFPRP, for which the “shrunken log2 fold change” value was -0.309.

Take RRIRMRPPRLPRPRPRPRESPRP: the “shrunken log2 fold change” value was 0.09.

Take RRIRQRPPRLPRPRPRPAVEPRP: the “shrunken log2 fold change” value was determined as 0.149.

Take RRIRDRPPRLPRPRPRPDCGPRP: the “shrunken log2 fold change” value amounted to 0.315.

Regarding RRIRLRPPRLPRPRPRPACKPRP, the “shrunken log2 fold change” value amounted to 0.00454.

RRIRTRPPRLPRPRPRPMQIPRP: the “shrunken log2 fold change” value turned out to be 0.08.

For RRIRERPPRLPRPRPRPPYTPRP, the “shrunken log2 fold change” value was -0.176.

Regarding RRIRLRPPRLPRPRPRPMQYPRP, the “shrunken log2 fold change” value was -0.208.

Take RRIRARPPRLPRPRPRPSGAPRP: the “shrunken log2 fold change” value is 0.38.

On to RRIRDRPPRLPRPRPRPILIPRP, for which the “shrunken log2 fold change” value is -0.0335.

Consider RRIRRRPPRLPRPRPRPRVAPRP, for which the “shrunken log2 fold change” value amounted to 0.875.

For the sequence RRIRVRPPRLPRPRPRPGRIPRP, the “shrunken log2 fold change” value turned out to be 0.0466.

On to RRIRHRPPRLPRPRPRPPWSPRP, for which the “shrunken log2 fold change” value stood at 0.093.

RRIRIRPPRLPRPRPRPGKYPRP: the “shrunken log2 fold change” value is -0.394.

On to RRIRYRPPRLPRPRPRPRHWPRP, for which the “shrunken log2 fold change” value amounted to 0.272.

On to RRIRNRPPRLPRPRPRPAQAPRP, for which the “shrunken log2 fold change” value is -0.0253.

Turning to RRIRDRPPRLPRPRPRPPNMPRP, the “shrunken log2 fold change” value was determined as 0.0281.

For RRIRCRPPRLPRPRPRPKGFPRP, the “shrunken log2 fold change” value amounted to 0.00848.

As for RRIRARPPRLPRPRPRPWRFPRP, the “shrunken log2 fold change” value was 0.323.

Turning to RRIRHRPPRLPRPRPRPHGTPRP, the “shrunken log2 fold change” value was -0.0524.

In the case of RRIRYRPPRLPRPRPRPIRHPRP, the “shrunken log2 fold change” value was found to be 0.0879.

RRIRWRPPRLPRPRPRPCPWPRP: the “shrunken log2 fold change” value was -0.0137.

As for RRIRLRPPRLPRPRPRPPGSPRP, the “shrunken log2 fold change” value turned out to be 0.226.

As to RRIRSRPPRLPRPRPRPISLPRP, the “shrunken log2 fold change” value is 1.99.

As to RRIRPRPPRLPRPRPRPVNQPRP, the “shrunken log2 fold change” value stood at 0.223.

As for RRIRERPPRLPRPRPRPIGIPRP, the “shrunken log2 fold change” value is -0.123.

With RRIRHRPPRLPRPRPRPSSVPRP, the “shrunken log2 fold change” value was found to be 0.0608.

Turning to RRIRDRPPRLPRPRPRPHPKPRP, the “shrunken log2 fold change” value is -0.149.

As for RRIRDRPPRLPRPRPRPHSGPRP, the “shrunken log2 fold change” value is -0.0339.

Turning to RRIRRRPPRLPRPRPRPDQDPRP, the “shrunken log2 fold change” value is -0.0033.

As for RRIRARPPRLPRPRPRPRYIPRP, the “shrunken log2 fold change” value is -0.0261.

As for RRIRRRPPRLPRPRPRPTVDPRP, the “shrunken log2 fold change” value amounted to 0.615.

As for RRIRERPPRLPRPRPRPDHWPRP, the “shrunken log2 fold change” value worked out at 0.0945.

Take RRIRMRPPRLPRPRPRPTGIPRP: the “shrunken log2 fold change” value is -0.149.

As for RRIRDRPPRLPRPRPRPTQNPRP, the “shrunken log2 fold change” value turned out to be 0.789.

In the case of RRIRKRPPRLPRPRPRPGIRPRP, the “shrunken log2 fold change” value stood at 0.267.

With RRIRGRPPRLPRPRPRPSHVPRP, the “shrunken log2 fold change” value was -0.141.

Consider RRIRRRPPRLPRPRPRPREYPRP, for which the “shrunken log2 fold change” value stood at 0.2.

On to RRIRYRPPRLPRPRPRPIFIPRP, for which the “shrunken log2 fold change” value is -0.631.

For RRIRSRPPRLPRPRPRPIYHPRP, the “shrunken log2 fold change” value is -0.884.

With RRIRPRPPRLPRPRPRPTSPPRP, the “shrunken log2 fold change” value was -0.0252.

With RRIRARPPRLPRPRPRPCRDPRP, the “shrunken log2 fold change” value was -0.0411.

On to RRIRNRPPRLPRPRPRPVKNPRP, for which the “shrunken log2 fold change” value was -0.157.

In the case of RRIRNRPPRLPRPRPRPLGRPRP, the “shrunken log2 fold change” value turned out to be 0.244.

On to RRIRHRPPRLPRPRPRPWGCPRP, for which the “shrunken log2 fold change” value is -0.106.

Consider RRIRNRPPRLPRPRPRPMDEPRP, for which the “shrunken log2 fold change” value came to 0.358.

For RRIRDRPPRLPRPRPRPTYTPRP, the “shrunken log2 fold change” value was determined as 0.319.

For RRIRLRPPRLPRPRPRPNSIPRP, the “shrunken log2 fold change” value is -0.0133.

In the case of RRIRHRPPRLPRPRPRPCNNPRP, the “shrunken log2 fold change” value was -0.188.

As for RRIRPRPPRLPRPRPRPVEWPRP, the “shrunken log2 fold change” value was 0.0458.

For the sequence RRIRGRPPRLPRPRPRPLRLPRP, the “shrunken log2 fold change” value is 1.34.

In the case of RRIRIRPPRLPRPRPRPMMEPRP, the “shrunken log2 fold change” value was -0.599.

Consider RRIRNRPPRLPRPRPRPPRIPRP, for which the “shrunken log2 fold change” value was found to be 0.325.

Regarding RRIRTRPPRLPRPRPRPWHPPRP, the “shrunken log2 fold change” value was -0.179.

On to RRIRCRPPRLPRPRPRPARYPRP, for which the “shrunken log2 fold change” value was -0.438.

In the case of RRIRGRPPRLPRPRPRPWEPPRP, the “shrunken log2 fold change” value was 0.177.

As to RRIRDRPPRLPRPRPRPQIAPRP, the “shrunken log2 fold change” value came out at 0.0211.

In the case of RRIRDRPPRLPRPRPRPDTYPRP, the “shrunken log2 fold change” value was -0.0814.

As for RRIRPRPPRLPRPRPRPSFYPRP, the “shrunken log2 fold change” value was -0.303.

On to RRIRGRPPRLPRPRPRPCMEPRP, for which the “shrunken log2 fold change” value worked out at 0.831.

Consider RRIRSRPPRLPRPRPRPEMIPRP, for which the “shrunken log2 fold change” value was 0.0158.

RRIRFRPPRLPRPRPRPSHLPRP: the “shrunken log2 fold change” value is -0.737.

Consider RRIRFRPPRLPRPRPRPREEPRP, for which the “shrunken log2 fold change” value is -0.0431.

Take RRIRARPPRLPRPRPRPIRMPRP: the “shrunken log2 fold change” value worked out at 0.183.

As to RRIRHRPPRLPRPRPRPMFCPRP, the “shrunken log2 fold change” value was found to be 0.0621.

In the case of RRIRGRPPRLPRPRPRPAFTPRP, the “shrunken log2 fold change” value was 0.436.

Consider RRIRARPPRLPRPRPRPTRNPRP, for which the “shrunken log2 fold change” value turned out to be 0.657.

For RRIRGRPPRLPRPRPRPMYKPRP, the “shrunken log2 fold change” value is 0.0271.

Regarding RRIRTRPPRLPRPRPRPLIDPRP, the “shrunken log2 fold change” value is -0.0458.

Consider RRIRSRPPRLPRPRPRPIFSPRP, for which the “shrunken log2 fold change” value was -0.617.

Consider RRIRYRPPRLPRPRPRPADNPRP, for which the “shrunken log2 fold change” value is -0.938.

Take RRIRCRPPRLPRPRPRPPSLPRP: the “shrunken log2 fold change” value worked out at 0.413.

Take RRIRNRPPRLPRPRPRPMCCPRP: the “shrunken log2 fold change” value is -0.406.

As to RRIRTRPPRLPRPRPRPHWQPRP, the “shrunken log2 fold change” value is -0.0496.

In the case of RRIRSRPPRLPRPRPRPWTEPRP, the “shrunken log2 fold change” value is -0.314.

Take RRIRGRPPRLPRPRPRPEAMPRP: the “shrunken log2 fold change” value amounted to 0.59.

As for RRIRFRPPRLPRPRPRPMSQPRP, the “shrunken log2 fold change” value was found to be 0.0397.

With RRIRFRPPRLPRPRPRPEHPPRP, the “shrunken log2 fold change” value was -0.0569.

Take RRIRMRPPRLPRPRPRPYIEPRP: the “shrunken log2 fold change” value is -0.201.

For the sequence RRIRYRPPRLPRPRPRPVMHPRP, the “shrunken log2 fold change” value is -0.338.

Regarding RRIRDRPPRLPRPRPRPNSNPRP, the “shrunken log2 fold change” value is -0.573.

On to RRIRRRPPRLPRPRPRPHRRPRP, for which the “shrunken log2 fold change” value is -0.000685.

As to RRIRGRPPRLPRPRPRPKEAPRP, the “shrunken log2 fold change” value was determined as 0.948.

For RRIRQRPPRLPRPRPRPWWVPRP, the “shrunken log2 fold change” value was -0.0321.

For RRIRARPPRLPRPRPRPCELPRP, the “shrunken log2 fold change” value was determined as 0.105.

Consider RRIRSRPPRLPRPRPRPQEWPRP, for which the “shrunken log2 fold change” value came out at 0.0425.

In the case of RRIRWRPPRLPRPRPRPFYPPRP, the “shrunken log2 fold change” value is -0.239.

Consider RRIRLRPPRLPRPRPRPHKDPRP, for which the “shrunken log2 fold change” value is -0.697.

With RRIRGRPPRLPRPRPRPKFWPRP, the “shrunken log2 fold change” value came to 0.533.

With RRIRYRPPRLPRPRPRPNPIPRP, the “shrunken log2 fold change” value was -0.711.

Take RRIRYRPPRLPRPRPRPPLTPRP: the “shrunken log2 fold change” value was -0.403.

Consider RRIRTRPPRLPRPRPRPMNKPRP, for which the “shrunken log2 fold change” value was -0.373.

For RRIRFRPPRLPRPRPRPHEWPRP, the “shrunken log2 fold change” value was -0.0176.

Take RRIRARPPRLPRPRPRPVRYPRP: the “shrunken log2 fold change” value was found to be 2.39.

Regarding RRIRARPPRLPRPRPRPIIYPRP, the “shrunken log2 fold change” value was -0.249.

As for RRIRTRPPRLPRPRPRPSTCPRP, the “shrunken log2 fold change” value was -0.175.

Turning to RRIRRRPPRLPRPRPRPATNPRP, the “shrunken log2 fold change” value was 0.189.

Consider RRIRPRPPRLPRPRPRPDKDPRP, for which the “shrunken log2 fold change” value is -0.173.

For RRIRMRPPRLPRPRPRPSMAPRP, the “shrunken log2 fold change” value amounted to 0.925.

Regarding RRIRLRPPRLPRPRPRPCCKPRP, the “shrunken log2 fold change” value is -0.102.

With RRIRHRPPRLPRPRPRPASNPRP, the “shrunken log2 fold change” value is -0.456.

In the case of RRIRCRPPRLPRPRPRPTFYPRP, the “shrunken log2 fold change” value was -0.237.

For RRIRWRPPRLPRPRPRPAREPRP, the “shrunken log2 fold change” value came out at 0.138.

Turning to RRIRRRPPRLPRPRPRPKLQPRP, the “shrunken log2 fold change” value was 0.179.

For the sequence RRIRDRPPRLPRPRPRPYPWPRP, the “shrunken log2 fold change” value was -0.136.

As for RRIRARPPRLPRPRPRPTNTPRP, the “shrunken log2 fold change” value amounted to 0.0887.

For the sequence RRIRVRPPRLPRPRPRPSCGPRP, the “shrunken log2 fold change” value is -0.113.

Consider RRIRVRPPRLPRPRPRPREYPRP, for which the “shrunken log2 fold change” value was determined as 0.0223.

Consider RRIRNRPPRLPRPRPRPRQNPRP, for which the “shrunken log2 fold change” value was -0.118.

Turning to RRIRPRPPRLPRPRPRPNTGPRP, the “shrunken log2 fold change” value came out at 0.881.

RRIRLRPPRLPRPRPRPKTMPRP: the “shrunken log2 fold change” value is 0.0334.

RRIRQRPPRLPRPRPRPRKRPRP: the “shrunken log2 fold change” value was -0.104.

As to RRIRRRPPRLPRPRPRPVLHPRP, the “shrunken log2 fold change” value was 0.0722.

Take RRIRARPPRLPRPRPRPKVEPRP: the “shrunken log2 fold change” value turned out to be 0.571.

As for RRIRFRPPRLPRPRPRPMNKPRP, the “shrunken log2 fold change” value was -0.65.

As to RRIRMRPPRLPRPRPRPRIRPRP, the “shrunken log2 fold change” value is 0.79.

Regarding RRIRQRPPRLPRPRPRPGGQPRP, the “shrunken log2 fold change” value was -0.137.

Turning to RRIRGRPPRLPRPRPRPIWGPRP, the “shrunken log2 fold change” value is 0.128.

For RRIRTRPPRLPRPRPRPECKPRP, the “shrunken log2 fold change” value was 0.165.

For RRIRGRPPRLPRPRPRPPDIPRP, the “shrunken log2 fold change” value amounted to 0.514.
